# Measured values as given in US20140057332A1, “GLUCO-OLIGOSACCHARIDE OXIDASES FROM ACREMONIUM STRICTUM AND USES THEREOF” (The Governing Council of the University of Toronto, priority 2011, published 2014).
# B1: Acremonium strictum gluco-oligosaccharide oxidase GOOX-VN (type strain CBS 346.70, V38 and N388), SEQ ID NO. 2 (Sarocladium strictum; A38V/S388N) (protein)
# chain: NSINACLAAADVEFHEEDSEGWEMDGTAFNLRVDYDPVAIAIPRSTEDIAAAVQCGLDAGVQISAKGGGHSYGSYGFGGEDGHLMLELDRMYRVSVDDDNVATIQGGARLGYTALELLDQGNRALTHGTCPAVGIGGHVLGGGYGFATHTHGLTLDWLVGATVVLADASIVHVSKTENADLFWALRGGGGGFAIVSEFEFNTFEAPEIITTYQVTTTWNRKQHVAGLKALQDWAENTMPRELSMRLEINANALNWEGNYFGNAKDLKKVLQPIMKKAGGKSTISKLVETDWYGQINTYLYGADLNITYNYDVHEYFYANSLTAPRLSDEAISAFVDYKFDNSSVRPGRGWWIQWDFHGGKNSALASHSNDETAYAHRDQLWLWQFYDNIYDYENNTSPYPESGFEFMQGFVATIEDTLPEDRKGKYFNYADTTLDKEEAQKLYWRGNLEKLQAIKAKYDPEDVFGNVVSVEPIA
# Key:
# [1] = Temperature stability (residual activity on cellobiose); format: physicochemical; conditions: for Residual activity after 1 h: assay 1 mM cellobiose, 37° C., pH 8
# Experimental: (§1) Temperature stability was measured by incubating 0.2 μg of enzyme for 1 h at nine different temperatures ranging from 25 to 60° C. (Table 9). While GOOX-VN and the variant GOOX-V were stable at 45° C., both lost more than 70% activity after incubation for 1 h at 50° C. […] The pH stability of GOOX-VN was determined by incubating 0.2 μg of the enzyme for 1 h at pH values from pH 3 to 12. After 1 h of incubation, GOOX-VN retained more than 80% activity at pH 5 to pH 10, 40% activity at pH 4, and less than 10% activity at pH values below 3 or above 11. Finally, the optimum pH for GOOX-VN activity was determined by incubating 0.1 μg of enzyme at 37° C. for up to 5 min with 25 mM cellobiose in 25 mM Britton-Robinson universal buffer solutions at pH 5 to 12. At regular time points, the chromogenic assay mix containing 400 mM potassium phosphate buffer pH 6, 0.1 mM 4-aminoantipyrine, 1 mM phenol, 3 U/ml horseradish peroxidase and 40 mM cellobiose was added to the reaction and was incubated for approximately 5 min at 37° C., until the chromogenic compound was detected.
# [2] = substrate: OC1OC[C@@H](O[C@@H]2OC[C@@H](O)[C@H](O)[C@H]2O)[C@H](O)[C@H]1O; experiment: purified protein, by the assay type; conditions: other: 37° C., pH 8.0
# Experimental: (§2) A chromogenic assay was used to measure hydrogen peroxide production (15). Reactions contained 0.1 mM 4aminoantipyrine (4AA), 1 mM phenol, 0.5 U horseradish peroxidase, 40 mM Tris-HCl (pH 8.0), and different substrates were initiated by adding 0.2 μg of enzymes to the 250 μL reaction mixture. The production of H2O2 was coupled to the oxidation of 4aminoantipyrine by horseradish peroxidase and detected at 500 nm. Reactions were incubated at 37° C. for 15 min to measure the specific activity of GOOX on 10 mM of monosaccharide or 1 mM of oligosaccharide.
# (§3) At least 12 substrate concentrations were included to obtain kinetic parameters for each substrate. Initial rates were obtained by measuring reaction products every 30 s for 15 min at 37° C. and pH 8.0, and kinetic parameters were calculated using the Michaelis-Menten equation (GraphPad Prism5 Software).
# [3] = substrate: OC[C@H]1O[C@@H](O[C@H]2[C@H](O)[C@@H](O)[C@H](O[C@H]3[C@H](O)[C@@H](O)C(O)O[C@@H]3CO)O[C@@H]2CO)[C@H](O)[C@@H](O)[C@@H]1O; experiment: purified protein, by the assay type; conditions: other: 37° C., pH 8.0
# Experimental: as §2, §3
# [4] = substrate: OC[C@H]1O[C@@H](O[C@H]2[C@H](O)[C@@H](O)C(O)O[C@@H]2CO)[C@H](O)[C@@H](O)[C@@H]1O; experiment: purified protein, by the assay type; conditions: other: 37° C., pH 8.0
# Experimental: as §2, §3
# [5] = substrate: OC1OC[C@@H](O[C@@H]2OC[C@@H](O[C@@H]3OC[C@@H](O)[C@H](O)[C@H]3O)[C@H](O)[C@H]2O)[C@H](O)[C@H]1O; experiment: purified protein, by the assay type; conditions: other: 37° C., pH 8.0
# Experimental: as §2, §3
# [6] = substrate: OC[C@H]1OC(O)[C@H](O)[C@@H](O)[C@@H]1O; experiment: purified protein, by the assay type; conditions: other: 37° C., pH 8.0
# Experimental: as §2, §3
# [7] = substrate: OC[C@H]1O[C@H](O[C@H]2[C@H](O)[C@@H](O)C(O)O[C@@H]2CO)[C@H](O)[C@@H](O)[C@@H]1O; experiment: purified protein, by the assay type; conditions: other: 37° C., pH 8.0
# Experimental: as §2, §3
# [8] = Chromogenic H2O2 oxidase assay / kinetic analysis on galactose
# [9] = Chromogenic H2O2 oxidase assay on xylohexaose; conditions: 1 mM xylohexaose; 37° C., 15 min
# Experimental: as §2
# (§4) An additional eight mutations, identified as Y72F, Y72A, E247A, E314A, W351A, N388S, Q353N, Q384A, were created in GOOX-VN to assess the influence of these residues on the substrate selectivity of GOOX-VN. […] The specific activity of each mutant was then measured at 37° C. for 15 min using 10 mM mono-sugars and 1 mM oligosaccharides as performed for Y300A, Y300N, and W351F (Table 11).
# [10] = Enzyme stability at 37° C. (residual activity on maltose); format: physicochemical; conditions: pre-incubation at 37° C. for 60 min; 10 mM maltose (FIG. 11)
# Experimental: The enzyme stability was evaluated in triplicate by incubating 0.6 μg of each enzyme preparation in 40 mM Tris-HCl buffer (pH 8.0) for 0, 5, 15, 25, 35, and 60 min at 37° C. Residual enzyme activity was measured at 37° C. for 15 min at pH 8.0 using 10 mM maltose and 0.2 μg of protein.
# pH stability of enzyme = format: physicochemical
# Experimental: as §1
# [11] = Chromogenic H2O2 oxidase assay / kinetic analysis on cellotriose
# [12] = Chromogenic H2O2 oxidase assay / kinetic analysis on xylose
# Experimental: as §2, §3
# Optimum pH for activity = format: biochemical; conditions: 25 mM cellobiose, 37° C., Britton-Robinson buffer pH 5 to 12
# Experimental: as §1
# [13] = Chromogenic H2O2 oxidase assay / kinetic analysis on cellobiose
# Experimental: as §2, §3
# [14] = Chromogenic H2O2 oxidase assay / kinetic analysis on glucose
# Experimental: as §2, §3
# [15] = Chromogenic H2O2 oxidase assay / kinetic analysis on xylotriose
# Experimental: as §2, §3
# [16] = Chromogenic H2O2 oxidase assay on xylopentaose; conditions: 1 mM xylopentaose; 37° C., 15 min
# Experimental: as §2, §4
# [17] = 10 mM galactose, 37° C., 15 min
# [18] = 1 mM cellotriose, 37° C., 15 min
# [19] = 1 mM cellobiose, 37° C., 15 min
# [20] = 1 mM xylotriose, 37° C., 15 min
molecule,measurement,setting,value
B1,stability at 45° C.,[1]; 1 h at 45° C.,stable
same,Residual activity after 1 h,[1]; incubation at 25° C.,100%
same,Residual activity after 1 h,[1]; incubation at 30° C.,95%
same,Residual activity after 1 h,[1]; incubation at 35° C.,100%
same,Residual activity after 1 h,[1]; incubation at 40° C.,100%
same,Residual activity after 1 h,[1]; incubation at 45° C.,64%
same,Residual activity after 1 h,[1]; incubation at 50° C.,7%
same,Residual activity after 1 h,[1]; incubation at 55° C.,<5%
same,Residual activity after 1 h,[1]; incubation at 60° C.,<5%
same,Km,[2],100 ± 0 µM
same,kcat,[2],8.813 ± 0.085 s⁻¹
same,kcat/Km,[2],89800 ± 867 M⁻¹ s⁻¹
same,Km,[3],90 ± 10 µM
same,kcat,[3],6.02 ± 0.192 s⁻¹
same,kcat/Km,[3],70600 ± 8150 M⁻¹ s⁻¹
same,Km,[4],70 ± 10 µM
same,kcat,[4],6.25 ± 0.178 s⁻¹
same,kcat/Km,[4],95500 ± 13900 M⁻¹ s⁻¹
same,Km,[5],100 ± 10 µM
same,kcat,[5],8.31 ± 0.123 s⁻¹
same,kcat/Km,[5],84300 ± 8530 M⁻¹ s⁻¹
same,Km,[6],17360 ± 700 µM
same,Km,[7],2810 ± 160 µM
same,Specific Activity of Enzyme Variants,[8]; [17],0.5 µmol/min/mg
same,Specific activity Defined substrate concentration,[8]; [17],0.52 µmol/mg/min
same,oxidation of galactose,[8]; after 3 min using 10 mM sugar,detected
same,Specific activity From Vmax,[8]; substrate galactose,7.08 µmol/mg/min
same,Specific Activity of Enzyme Variants,[9],11.0 µmol/min/mg
same,activity following pre-incubation,[10],remained active
same,activity retained after 1 h of incubation,pH stability of enzyme; pH 4,40%
same,activity retained after 1 h of incubation,pH stability of enzyme; pH 5 to pH 10,more than 80%
same,activity retained after 1 h of incubation,pH stability of enzyme; pH values below 3 or above 11,less than 10%
same,Specific Activity of Enzyme Variants,[11]; [18],5.1 µmol/min/mg
same,Specific activity Defined substrate concentration,[11]; [18],5.12 µmol/mg/min
same,Specific activity From Vmax,[11]; substrate cellotriose,5.96 µmol/mg/min
same,Specific Activity of Enzyme Variants,"[12]; 10 mM xylose, 37° C., 15 min",0.4 µmol/min/mg
same,Specific activity Defined substrate concentration,"[12]; 10 mM xylose, 37° C., 15 min",0.42 µmol/mg/min
same,oxidation of xylose,[12]; after 3 min using 10 mM sugar,detected
same,Specific activity From Vmax,[12]; substrate xylose,5.20 µmol/mg/min
same,pH optimum,Optimum pH for activity,10 pH
same,Specific Activity of Enzyme Variants,[13]; [19],5.4 µmol/min/mg
same,Specific activity Defined substrate concentration,[13]; [19],5.38 µmol/mg/min
same,Specific activity From Vmax,[13]; substrate cellobiose,6.18 µmol/mg/min
same,Specific Activity of Enzyme Variants,"[14]; 10 mM glucose, 37° C., 15 min",2.6 µmol/min/mg
same,Specific activity Defined substrate concentration,"[14]; 10 mM glucose, 37° C., 15 min",2.62 µmol/mg/min
same,Specific activity From Vmax,[14]; substrate glucose,7.41 µmol/mg/min
same,Specific Activity of Enzyme Variants,[15]; [20],7.5 µmol/min/mg
same,Specific activity Defined substrate concentration,[15]; [20],7.48 µmol/mg/min
same,Specific activity From Vmax,[15]; substrate xylotriose,8.23 µmol/mg/min
same,Specific Activity of Enzyme Variants,[16],10.8 µmol/min/mg
